According to patent US20150329626A1:

Key:
human Ang2 (human) [1] = molecular target: human Ang2 (human) (UniProt O15123); assay: competition ELISA: blocking of biotinylated human Ang2 binding to plate-coated human Tie2-Fc
[2] = molecular target: cyno Ang2 (cynomolgus monkey); assay: Biacore SPR, 37 C, n = 3, antibody captured on Protein A
rabbit Ang2 (rabbit) = rabbit Ang2 (rabbit) (UniProt G1T9B3); assay: as above
human Ang2 (human) [3] = molecular target: human Ang2 (human) (UniProt O15123); assay: as above
mouse Ang2 (mouse) = mouse Ang2 (mouse) (UniProt O35608); assay: as above
mouse Ang2 (mouse), sequence (O35608 19-496 limits assumed): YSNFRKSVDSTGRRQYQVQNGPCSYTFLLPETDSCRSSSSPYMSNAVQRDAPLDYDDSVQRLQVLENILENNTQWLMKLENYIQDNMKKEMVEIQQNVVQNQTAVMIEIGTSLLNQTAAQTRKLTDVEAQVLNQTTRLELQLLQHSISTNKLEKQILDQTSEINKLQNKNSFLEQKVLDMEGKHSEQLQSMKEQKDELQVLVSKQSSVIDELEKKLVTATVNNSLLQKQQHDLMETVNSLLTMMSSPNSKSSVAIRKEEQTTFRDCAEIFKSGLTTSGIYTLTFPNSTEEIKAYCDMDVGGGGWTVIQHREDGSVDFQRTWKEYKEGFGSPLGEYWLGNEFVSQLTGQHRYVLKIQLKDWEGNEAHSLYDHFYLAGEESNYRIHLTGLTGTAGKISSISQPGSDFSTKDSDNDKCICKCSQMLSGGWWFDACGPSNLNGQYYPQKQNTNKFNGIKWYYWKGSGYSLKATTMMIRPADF

dog Ang2 (dog) = assay: as above
dog Ang2 (dog), sequence (A0A8J8 19-495 limits assumed): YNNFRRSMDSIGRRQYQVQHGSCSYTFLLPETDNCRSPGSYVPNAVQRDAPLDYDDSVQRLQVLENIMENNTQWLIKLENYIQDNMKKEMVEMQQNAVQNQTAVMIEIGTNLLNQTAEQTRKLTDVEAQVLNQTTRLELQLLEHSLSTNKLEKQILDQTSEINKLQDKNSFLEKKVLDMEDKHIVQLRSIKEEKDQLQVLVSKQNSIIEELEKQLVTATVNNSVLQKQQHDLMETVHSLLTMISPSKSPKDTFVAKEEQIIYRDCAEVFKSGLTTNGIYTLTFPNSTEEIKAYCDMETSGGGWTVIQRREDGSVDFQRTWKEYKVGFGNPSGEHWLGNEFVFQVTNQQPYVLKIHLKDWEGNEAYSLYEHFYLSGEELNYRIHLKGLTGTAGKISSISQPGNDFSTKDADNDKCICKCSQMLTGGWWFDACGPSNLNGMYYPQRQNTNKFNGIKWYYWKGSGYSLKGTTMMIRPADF

human Ang2 (human) [4] = molecular target: human Ang2 (human) (UniProt O15123); assay: cell-based or functional assay

human Ang2 (human), sequence (O15123 19-496 limits assumed): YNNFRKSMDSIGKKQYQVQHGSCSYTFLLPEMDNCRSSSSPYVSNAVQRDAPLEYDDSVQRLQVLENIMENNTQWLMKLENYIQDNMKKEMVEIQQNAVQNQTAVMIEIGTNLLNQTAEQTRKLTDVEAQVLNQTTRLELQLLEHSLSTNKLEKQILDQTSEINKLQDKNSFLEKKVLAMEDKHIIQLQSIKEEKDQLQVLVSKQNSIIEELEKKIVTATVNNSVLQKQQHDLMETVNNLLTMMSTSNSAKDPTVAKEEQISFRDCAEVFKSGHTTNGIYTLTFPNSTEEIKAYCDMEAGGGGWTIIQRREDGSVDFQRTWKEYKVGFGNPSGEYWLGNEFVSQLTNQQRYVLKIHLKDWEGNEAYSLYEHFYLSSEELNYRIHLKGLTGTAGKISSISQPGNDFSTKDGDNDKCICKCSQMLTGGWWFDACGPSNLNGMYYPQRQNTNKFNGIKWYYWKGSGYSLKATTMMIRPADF
rabbit Ang2 (rabbit), sequence (G1T9B3 entry or part of it): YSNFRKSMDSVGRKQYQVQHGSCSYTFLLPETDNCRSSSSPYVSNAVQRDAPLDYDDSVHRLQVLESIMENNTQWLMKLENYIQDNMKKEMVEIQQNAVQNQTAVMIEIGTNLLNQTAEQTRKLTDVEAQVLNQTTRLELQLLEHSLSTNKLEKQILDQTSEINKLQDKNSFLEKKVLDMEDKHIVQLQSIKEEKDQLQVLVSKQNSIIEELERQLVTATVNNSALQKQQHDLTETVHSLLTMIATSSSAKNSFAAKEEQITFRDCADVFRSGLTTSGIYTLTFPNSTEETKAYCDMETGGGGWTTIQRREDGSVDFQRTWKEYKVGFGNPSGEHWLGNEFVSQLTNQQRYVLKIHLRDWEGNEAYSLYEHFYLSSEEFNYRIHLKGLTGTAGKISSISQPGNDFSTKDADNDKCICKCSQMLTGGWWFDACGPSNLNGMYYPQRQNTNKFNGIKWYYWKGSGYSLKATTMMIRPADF

B1: Ang2 antibody with the same HCDRs and LCDRs as the scFv polypeptide portion of Compound F (antibody, V domains shown)
VH: QVQLVQSGAEVKKPGSSVKVSCKASGYSFTDYNMVWVRQAPGQCLEWMGYIDPYNGGTGYNQKFEGRVTITADESTSTAYMELSSLRSEDTAVYYCARTRDRYDVWYFDVWGQGTLVTVSS
VL: DIVMTQSPDSLAVSLGERATINCKASQDVYIAVAWYQQKPGQPPKLLIYWASTRDTGVPDRFSGSGSGTDFTLTISSLQAEDVAVYYCHQYSSYPPTFGCGTKVEIK
modifications: CDRs only; frameworks, constant regions missing
In the case of B1, the IC50 (human Ang2 (human) [1]) is reported as 27 pM, the Kd [2] is reported as 107 pM and the koff [2] is reported as 0.00029 s⁻¹. For the same binder, the kon [2] was 2.7e+06 M⁻¹ s⁻¹, the Kd (rabbit Ang2 (rabbit)) was 210 pM and the koff (rabbit Ang2 (rabbit)) was 0.00015 s⁻¹. The kon (rabbit Ang2 (rabbit)) was 730000 M⁻¹ s⁻¹, the Kd (human Ang2 (human) [3]) was 80 pM and the koff (human Ang2 (human) [3]) was 7e-05 s⁻¹. The kon (human Ang2 (human) [3]) was 1e+06 M⁻¹ s⁻¹, the Kd (mouse Ang2 (mouse)) was 109 pM and the koff (mouse Ang2 (mouse)) was 0.00011 s⁻¹. The kon (mouse Ang2 (mouse)) was 1e+06 M⁻¹ s⁻¹, the Kd (dog Ang2 (dog)) was 140 pM and the koff (dog Ang2 (dog)) was 0.00011 s⁻¹. It also gave a kon (dog Ang2 (dog)) of 790000 M⁻¹ s⁻¹ and an inhibition of human Ang2 induced phospho-Tie2 in CHO-Tie2 cells (IC50) (human Ang2 (human) [4]) of 773 pM.
